Reference: the supplement of paper PMC10567573

B1: SPACA3 (parent)
chain: FTSGFNAAALDYEADGSTNNGIFQ

Variants of: B1
Experiment: protein stability index of a GFP-peptide fusion (GPS, HEK-293T) (PSI 1-6); higher = more stable
Conditions: c terminus: a fixed tail appended
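Further: lentivirally expressed fusions sorted by FACS into six bins by GFP to DsRed ratio, PSI derived from sequencing read proportions per bin multiplied by bin number.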

Q: For FTSGFNAAALVYEADGSTNNGIFQ, which protein stability index is on record?
A: The protein stability index was 2.6.

Q: For FTSGFNAAALWYEADGSTNNGIFQ, which protein stability index is on record?
A: The protein stability index was 1.4.

Q: With FTSGFNAAALKYEADGSTNNGIFQ as the variant, how does the protein stability index read?
A: Its protein stability index is 2.43.

Q: For FTSGFNAAALLYEADGSTNNGIFQ, which protein stability index is on record?
A: Its protein stability index is 1.93.

Q: Which protein stability index does the source give for FTSGFNAAALPYEADGSTNNGIFQ here?
A: Its protein stability index is 1.84.

Q: Which protein stability index does the source give for FTSGFNAAALYYEADGSTNNGIFQ here?
A: Its protein stability index is 2.66.

Q: With FTSGFNAAALCYEADGSTNNGIFQ as the variant, how does the protein stability index read?
A: The protein stability index was 2.03.

Q: With FTSGFNAAALGYEADGSTNNGIFQ as the variant, how does the protein stability index read?
A: The protein stability index was 2.46.

Q: Which protein stability index does the source give for FTSGFNAAALQYEADGSTNNGIFQ here?
A: The protein stability index was 2.01.

Q: For FTSGFNAAALRYEADGSTNNGIFQ, which protein stability index is on record?
A: Its protein stability index is 2.2.

Q: With FTSGFNAAALHYEADGSTNNGIFQ as the variant, how does the protein stability index read?
A: Its protein stability index is 2.04.

Q: Which protein stability index does the source give for FTSGFNAAALNYEADGSTNNGIFQ here?
A: The protein stability index was 1.57.

Q: Which protein stability index does the source give for FTSGFNAAALTYEADGSTNNGIFQ here?
A: The protein stability index was 2.

Q: Which protein stability index does the source give for FTSGFNAAALAYEADGSTNNGIFQ here?
A: Its protein stability index is 2.16.

Q: For FTSGFNAAALMYEADGSTNNGIFQ, which protein stability index is on record?
A: Its protein stability index is 1.98.

Q: For FTSGFNAAALIYEADGSTNNGIFQ, which protein stability index is on record?
A: Its protein stability index is 2.27.

Q: Which protein stability index does the source give for FTSGFNAAALEYEADGSTNNGIFQ here?
A: Its protein stability index is 1.79.

Q: Which protein stability index does the source give for FTSGFNAAALSYEADGSTNNGIFQ here?
A: Its protein stability index is 1.5.

Q: With FTSGFNAAALDSEADGSTNNGIFQ as the variant, how does the protein stability index read?
A: The protein stability index was 1.93.

Q: Which protein stability index does the source give for FTSGFNAAALDGEADGSTNNGIFQ here?
A: The protein stability index was 2.22.

Q: With FTSGFNAAALDWEADGSTNNGIFQ as the variant, how does the protein stability index read?
A: The protein stability index was 1.39.

Q: With FTSGFNAAALDCEADGSTNNGIFQ as the variant, how does the protein stability index read?
A: Its protein stability index is 2.28.

Q: For FTSGFNAAALDKEADGSTNNGIFQ, which protein stability index is on record?
A: Its protein stability index is 2.04.

Q: With FTSGFNAAALDDEADGSTNNGIFQ as the variant, how does the protein stability index read?
A: Its protein stability index is 2.3.

Q: Which protein stability index does the source give for FTSGFNAAALDTEADGSTNNGIFQ here?
A: The protein stability index was 2.41.

Q: For FTSGFNAAALDLEADGSTNNGIFQ, which protein stability index is on record?
A: The protein stability index was 1.74.

Q: Which protein stability index does the source give for FTSGFNAAALDIEADGSTNNGIFQ here?
A: Its protein stability index is 2.05.

Q: Which protein stability index does the source give for FTSGFNAAALDNEADGSTNNGIFQ here?
A: Its protein stability index is 2.2.

Q: For FTSGFNAAALDPEADGSTNNGIFQ, which protein stability index is on record?
A: Its protein stability index is 2.09.

Q: For FTSGFNAAALDREADGSTNNGIFQ, which protein stability index is on record?
A: The protein stability index was 1.78.

Q: For FTSGFNAAALDAEADGSTNNGIFQ, which protein stability index is on record?
A: Its protein stability index is 2.09.

Q: With FTSGFNAAALDFEADGSTNNGIFQ as the variant, how does the protein stability index read?
A: The protein stability index was 1.9.

Q: For FTSGFNAAALDHEADGSTNNGIFQ, which protein stability index is on record?
A: Its protein stability index is 2.04.

Q: Which protein stability index does the source give for FTSGFNAAALDMEADGSTNNGIFQ here?
A: Its protein stability index is 1.83.

Q: Which protein stability index does the source give for FTSGFNAAALDVEADGSTNNGIFQ here?
A: Its protein stability index is 2.34.

Q: With FTSGFNAAALDEEADGSTNNGIFQ as the variant, how does the protein stability index read?
A: The protein stability index was 2.7.

Q: Which protein stability index does the source give for FTSGFNAAALDQEADGSTNNGIFQ here?
A: The protein stability index was 2.25.

Q: For FTSGFNAAALDYEAYGSTNNGIFQ, which protein stability index is on record?
A: The protein stability index was 2.47.

Q: With FTSGFNAAALDYEAWGSTNNGIFQ as the variant, how does the protein stability index read?
A: The protein stability index was 2.46.

Q: Which protein stability index does the source give for FTSGFNAAALDYEALGSTNNGIFQ here?
A: Its protein stability index is 1.58.

Q: Which protein stability index does the source give for FTSGFNAAALDYEAVGSTNNGIFQ here?
A: The protein stability index was 1.43.

Q: For FTSGFNAAALDYEAKGSTNNGIFQ, which protein stability index is on record?
A: The protein stability index was 1.65.

Q: Which protein stability index does the source give for FTSGFNAAALDYEAAGSTNNGIFQ here?
A: The protein stability index was 2.11.

Q: Which protein stability index does the source give for FTSGFNAAALDYEAMGSTNNGIFQ here?
A: Its protein stability index is 1.63.

Q: For FTSGFNAAALDYEAQGSTNNGIFQ, which protein stability index is on record?
A: The protein stability index was 1.66.

Q: With FTSGFNAAALDYEAHGSTNNGIFQ as the variant, how does the protein stability index read?
A: Its protein stability index is 1.74.

Q: Which protein stability index does the source give for FTSGFNAAALDYEAPGSTNNGIFQ here?
A: Its protein stability index is 1.64.

Q: Which protein stability index does the source give for FTSGFNAAALDYEAEGSTNNGIFQ here?
A: The protein stability index was 2.26.

Q: With FTSGFNAAALDYEASGSTNNGIFQ as the variant, how does the protein stability index read?
A: Its protein stability index is 2.

Q: Which protein stability index does the source give for FTSGFNAAALDYEACGSTNNGIFQ here?
A: The protein stability index was 2.27.

Q: For FTSGFNAAALDYEATGSTNNGIFQ, which protein stability index is on record?
A: Its protein stability index is 1.98.

Q: With FTSGFNAAALDYEAFGSTNNGIFQ as the variant, how does the protein stability index read?
A: The protein stability index was 2.42.

Q: With FTSGFNAAALDYEAGGSTNNGIFQ as the variant, how does the protein stability index read?
A: Its protein stability index is 1.68.

Q: Which protein stability index does the source give for FTSGFNAAALDYEARGSTNNGIFQ here?
A: Its protein stability index is 1.96.

Q: For FTSGFNAAALDYEAIGSTNNGIFQ, which protein stability index is on record?
A: The protein stability index was 2.12.

Q: With FTSGFNAAALDYEANGSTNNGIFQ as the variant, how does the protein stability index read?
A: The protein stability index was 1.86.

Q: For FTSGFNAAALDYEADGHTNNGIFQ, which protein stability index is on record?
A: The protein stability index was 2.31.

Q: For FTSGFNAAALDYEADGWTNNGIFQ, which protein stability index is on record?
A: The protein stability index was 2.1.

Q: Which protein stability index does the source give for FTSGFNAAALDYEADGPTNNGIFQ here?
A: Its protein stability index is 2.05.

Q: Which protein stability index does the source give for FTSGFNAAALDYEADGNTNNGIFQ here?
A: Its protein stability index is 2.21.

Q: With FTSGFNAAALDYEADGRTNNGIFQ as the variant, how does the protein stability index read?
A: The protein stability index was 1.95.

Q: With FTSGFNAAALDYEADGATNNGIFQ as the variant, how does the protein stability index read?
A: The protein stability index was 2.1.

Q: For FTSGFNAAALDYEADGDTNNGIFQ, which protein stability index is on record?
A: The protein stability index was 2.21.

Q: With FTSGFNAAALDYEADGGTNNGIFQ as the variant, how does the protein stability index read?
A: The protein stability index was 2.05.

Q: With FTSGFNAAALDYEADGFTNNGIFQ as the variant, how does the protein stability index read?
A: The protein stability index was 1.74.

Q: With FTSGFNAAALDYEADGQTNNGIFQ as the variant, how does the protein stability index read?
A: Its protein stability index is 2.35.

Q: With FTSGFNAAALDYEADGMTNNGIFQ as the variant, how does the protein stability index read?
A: Its protein stability index is 1.48.

Q: With FTSGFNAAALDYEADGITNNGIFQ as the variant, how does the protein stability index read?
A: Its protein stability index is 1.96.

Q: Which protein stability index does the source give for FTSGFNAAALDYEADGTTNNGIFQ here?
A: The protein stability index was 2.19.

Q: For FTSGFNAAALDYEADGKTNNGIFQ, which protein stability index is on record?
A: Its protein stability index is 1.87.

Q: For FTSGFNAAALDYEADGYTNNGIFQ, which protein stability index is on record?
A: The protein stability index was 1.93.

Q: For FTSGFNAAALDYEADGLTNNGIFQ, which protein stability index is on record?
A: The protein stability index was 1.71.

Q: With FTSGFNAAALDYEADGCTNNGIFQ as the variant, how does the protein stability index read?
A: Its protein stability index is 1.94.

Q: With FTSGFNAAALDYEADGVTNNGIFQ as the variant, how does the protein stability index read?
A: Its protein stability index is 2.06.

Q: Which protein stability index does the source give for FTSGFNAAALDYEADGETNNGIFQ here?
A: The protein stability index was 2.13.

Q: Which protein stability index does the source give for FTSGFNAAALDYEADPSTNNGIFQ here?
A: The protein stability index was 1.97.

Q: For FTSGFNAAALDYEADYSTNNGIFQ, which protein stability index is on record?
A: Its protein stability index is 1.66.

Q: With FTSGFNAAALDYEADISTNNGIFQ as the variant, how does the protein stability index read?
A: The protein stability index was 1.92.

Q: Which protein stability index does the source give for FTSGFNAAALDYEADCSTNNGIFQ here?
A: The protein stability index was 1.49.

Q: Which protein stability index does the source give for FTSGFNAAALDYEADDSTNNGIFQ here?
A: Its protein stability index is 2.31.

Q: With FTSGFNAAALDYEADFSTNNGIFQ as the variant, how does the protein stability index read?
A: The protein stability index was 1.96.

Q: With FTSGFNAAALDYEADTSTNNGIFQ as the variant, how does the protein stability index read?
A: Its protein stability index is 2.26.

Q: Which protein stability index does the source give for FTSGFNAAALDYEADMSTNNGIFQ here?
A: The protein stability index was 2.

Q: Which protein stability index does the source give for FTSGFNAAALDYEADQSTNNGIFQ here?
A: Its protein stability index is 1.9.

Q: Which protein stability index does the source give for FTSGFNAAALDYEADNSTNNGIFQ here?
A: Its protein stability index is 2.33.

Q: Which protein stability index does the source give for FTSGFNAAALDYEADHSTNNGIFQ here?
A: The protein stability index was 2.19.

Q: For FTSGFNAAALDYEADLSTNNGIFQ, which protein stability index is on record?
A: Its protein stability index is 1.72.

Q: For FTSGFNAAALDYEADESTNNGIFQ, which protein stability index is on record?
A: The protein stability index was 2.31.

Q: Which protein stability index does the source give for FTSGFNAAALDYEADASTNNGIFQ here?
A: The protein stability index was 2.3.

Q: With FTSGFNAAALDYEADKSTNNGIFQ as the variant, how does the protein stability index read?
A: Its protein stability index is 2.26.

Q: For FTSGFNAAALDYEADWSTNNGIFQ, which protein stability index is on record?
A: The protein stability index was 1.15.

Q: Which protein stability index does the source give for FTSGFNAAALDYEADVSTNNGIFQ here?
A: The protein stability index was 1.78.

Q: Which protein stability index does the source give for FTSGFNAAALDYEADSSTNNGIFQ here?
A: Its protein stability index is 1.83.

Q: With FTSGFNAAALDYEADRSTNNGIFQ as the variant, how does the protein stability index read?
A: Its protein stability index is 1.87.
